Data taken from the DeepSol protein solubility set.

assay: soluble on expression in E. coli; label from the status in PepcDB or PDB records

Sequence	soluble on expression in E. coli
MGSDKIHHHHHHMQDLNDLSLFAQVVEHGSFSAASRATGIPKSRLSRRIAQLERDLGVQLLRRTTRQVRVTPLGESYYERCRAMLKEAEAAHEVIEQARDQPGGTLRVSCPVAIAQILLAPAIGHFMRANPAVRIELEATNRRVDVIGEGYDLSLRVRDVLEDSSLAVRTFGESQLMLVASPGLLDSIGRPRTPQALDGMPGVGQKPHDGKHVWVLGCKSGETIQIAYDPRLVTDEFSLLREAAIAGIGVAMLPRMYCRDAIDAGELELLLPQWEMPVGTLHAVFPSRKGVTPAVRRFLDFLSEILPENARKVGMHEPRQPAMHRAV	not soluble
MSAYLDWLADMGIDGAHPGGFELTKQILRKLKIDRSTSVLDVGCGTGQTAAYIAEQYGANVTAIDIHPTMIAKAKQRFAAKAVSVRLHRASVEALPFPAGTFDLALSESVLAFVSLPNALAEIRRVLKNDGLFVGIEACHERLTAAEQKQIAAFYGFRQLMTSAEWKEVLEQSGFGCRQFSYAAAAEAPSLGAPIVIALPPTPEMASMWQMHQQLTAQFGDRLGYCVFCCEP	not soluble
GPLGSEVKKKKNKKKNKKVNGLPPEIAAVPELAKYWAQRYRLFSRFDDGIKLDREGWFSVTPEKIAEHIAGRVSQSFKCDVVVDAFCGVGGNTIQFALTGMRVIAIDIDPVKIALARNNAEVYGIADKIEFICGDFLLLASFLKADVVFLSPPWGGPDYATAETFDIRTMMSPDGFEIFRLSKKITNNIVYFLPRNADIDQVASLAGPGGQVEIEQNFLNNKLKTITAYFGDLIRRPASET	soluble
MSLSGDLIDGLRDLNVLVVQPHDGSTEELLKQIGRIGCNATAVWPFPQSIPDGTDMIFMEITHPLDANAVRLLGVESVDAPTVVGIIAYENPSVLKGIIDLKIDTVLAKPIRPFGVLSHMLMARSVCLARRRDEEELQKLRRKIQAIQKIADAKFILMRHHSINETEAYKIIRSQAMAKRTSTLEIAQSVINAESILSGMAPHDLTARMQSQTEGHHHHHH	not soluble
MGHHHHHHSHLSFHFPPRVTGHPWSLVFCTSRDGFSLQSLYRRMEGCSGPVLLVLRDQDGQIFGAFSSSAIRLSKGFYGTGETFLFSFSPQLKVFKWTGSNSFFVKGDLDSLMMGSGSGRFGLWLDGDLFRGGSSPCPTFNNEVLARQEQFCIQELEAWLLS	not soluble
FRGFRYNAGVYFDRSRNKLTEFGAEEIGSYSIKREGLPYDEYYMLECIGVFADQAEINASPKQFNDNTQPGDLKYKDISGPDGKPDGVIDNYDRRTFSGRFPGFEYGINASATWKGFDLSLIGQGVADKKYYTTDWGVQPFMQGSSPNKDYIKHMWTEENPYGAKHPKLYWQDMGGGKNTRPNSYYLKDASFFRLKNLTLGYTLPRVWTEKANISKVRIYFSGDNLLTLTPYKGLDPERNGDGRDAIYPQNRIYSFGLNVEF	not soluble
MAVKVAINGFGRIGRLAFRRIQEVEGLEVVAVNDLTDDDMLAHLLKYDTMQGRFTGEVEVVDGGFRVNGKEVKSFSEPDASKLPWKDLNIDVVLECTGFYTDKDKAQAHIEAGAKKVLISAPATGDLKTIVFNTNHQELDGSETVVSGASSTTNSLAPVAKVLNDDFGLVEGLMTTIHAYTGDQNTQDAPHRKGDKRRARAAAENIIPNSTGAAKAIGKVIPEIDGKLDGGAQRVPVATGSLTELTVVLEKQDVTVEQVNEAMKNASNESFGYTEDEIVSSDVVGMTYGSLFDATQTRVMSVGDRQLVKVAAWYDNEMSYTAQLVRTLAYLAELSK	soluble
GMRNPSEDHMMRTPYQIVADHYAASDRHDPAAMMADIAPAIEWTEMAGFPCAGTYRSADEIVRNVFRRLGEEWDGYTFKLDALHDAGDTVIGVGRYSGTYRRTGKSFECRVAHVWRVDAGKIVHFEQFTDTLLVAQAMQP	soluble
VDYKTVRCHFGDVELTKWITITDGFTVFSGADYDPELKEIGGKDGSIFIGTKTKHKVIKVPFWVKYNTIEDYDALQLALSSKKPKMLMFSHIPGRYYLAVQVGDLNFKEIKMNGFGEITFIVADAYAHSTSYRRIKDYTQDGNKMTFKIKNNGTAPAFPIFRIKHLGENGYIGITNETGAFAVGSPEEEDGTIVHRNETLFDYSKAIAQALEGAPNVAKLNYMPPTFDSELKRMRLDNILGSGKGGEYVAIGARGTTPGYGEHVGTRTFIINPDSNGEYTLNEHLWWKQIFIATAQDQKGFLKLCVTGENDEFLYGIETYKRKNGFETEYNFFALDDDGVGWRFYKQFEFQADRNYHNPFSMNRSRAVEIFREEDKFRIYFNGAHHHVTVPSLKGKKSRKIHLAMGTCSDSSKYINYNLFEKVNFEKMGVSHYNNIVNKYQPGDEVIINFENDTVSTKDIDSIQDVVLGSKMISIPPGESELVVHLSSWVA	not soluble
MAEDKTKPSELDQGKYDADDNVKIICLGDSAVGKSKLMERFLMDGFQPQQLSTYALTLYKHTATVDGRTILVDFWDTAGQERFQSMHASYYHKAHACIMVFDVQRKVTYRNLSTWYTELREFRPEIPCIVVANKIDADINVTQKSFNFAKKFSLPLYFVSAADGTNVVKLFNDAIRLAVSYKQNSQDFMDEIFQELENFSLEQEEEDVPDQEQSSSIETPSEEAASPHS	soluble
MRKSRLSRYKQNKLIELFVAGVTARTATEPDSIVYTDCYRRYDVLDAGEFSHFRINHSTHFAERQNHINGIGNFWNRAKRHLRKFDGIPKEHFEPYLKECERRFLEHHHHHH	soluble
MHGSQKDTTFTKIFVGGLPYHTTDASLRKYFEGFGDIEEAVVITDRQTGKSRGYGFVTMADRAAAERACKDPNPIIDGRKANVNLAYLGAKPRSLQTGFAIGV	soluble
MAHHHHHHMYTRLTELFFISHTFRGRMSSTFCLQPSMMRPLLEQQRRFTSIISRFSSTVTSHVSSLADTHFMPLSEQCITEPRRPYPRRVSMQENLAERLTLQRSLRAHLVPLQVIVSKEKLYIELVWPSAALRAVENQKETMAHTVKGAAADGDDDGNDAALHHAMESPARTVSSGLSQRRPLEEHRTRFLAEFLRAYSPSTDVIGSDVLIYGRRGITITDVIPVGNYALRIVFSDGHSGGIYPYEYLFHLGCEKYSRMREYIRRLRAKHKSRDPPKRAPSQRLSRSRSAQRAEGRHMNSHGQDDQ	not soluble
MTTKNTLQPTEAAYIAGFLDGDGSIYAKLIPRPDYKDIKYQVSLAISFIQRKDKFPYLQDIYDQLGKRGNLRKDRGDGIADYTIIGSTHLSIILPDLVPYLRIKKKQANRILHIINLYPQAQKNPSKFLDLVKIVDDVQNLNKRADELKSTNYDRLLEEFLKAGKIESSPTGSGSGSKHPTLTLPTTTSQENLPNGSGSGSGTMTTKNTLQPTEAAYIAGFLDGDGSIYAKLIPRPDYKDIKYQVSLAISFIQRKDKFPYLQDIYDQLGKRGNLRKDRGDGIADYTIIGSTHLSIILPDLVPYLRIKKKQANRILHIINLYPQAQKNPSKFLDLVKIVDDVQNLNKRADELKSTNYDRLLEEFLKAGKIESSP	soluble
MLNEREKILLKTLVERYIHEGQPVGSRSLAKFSGLDLSPATIRNVMTDLEEMGYVSSPHTSAGRMPTTLGYRFFVDTLLVVKSLDNEQITLLENQLHPNNPTHLMNVTSRLLSELTRFVGVVVTPKRMGGAVFRHIEFVALTEKRILLILVTPEGDVQNRIILTETAYSQSDLIEAGNFLNQHYAGCTLEEIRSGLQRELTQLRRDMTGLMNAAIEIGNDALQESSEAVVIAGEHRLFDVRDLSDNLSSLKSLFEMFERKSKLLQLMELSRQAHGVKIFIGGESDETMLEEVSVVTAPYEMEGKIVGTVGVIGPRRMAYERIIPIVDITAKLLSSNLS	not soluble
MSLIDRYILAIESSCDETSVAILKNEDQLLSNIIASQVESHKRFGGVVPEVASRHHVEVITLCIQDALQEAGITAGDLSAVAVTYGPGLVGALLVGMAAAKAFAWANHLPLIPVNHMAGHLMAAQSIADLQYPLLALLVSGGHTELVYVAAPGDYRIVGETRDDAVGEAYDKVGRVMGLTYPAGKEIDQLAHQGQDIYDFPRAMIKEDNLEFSFSGLKSAFINLHHNARQKGEQLRLEDLCASFQAAVLDILMVKTKKALAAYPVKTLVIAGGVAANQGLRERLKEDIKDINVVIPPLRLCGDNAGMIAYAAAVEYEKGHFAELDLNAKPSLAFEGLEEGHHHHHH	soluble
TDVATVVSQAKAQMKEAYYTYSHTVTETGQFPDIKDVYAAYNKAKQAYANAVAVVNKAGGAKKDAYLADLQAIYETYVFKANPKSGEARVATYIDAYNYATKLDKMRQELKAAVDAKDLKKAEELYHKISYELKTRTVILDRVYGQSTRELLRSTFKADAQALRDRLIYDITVAMKAREAQDAVKAGNLDKAKAALDQVNQYVSKVTDAFKAELQKAAQDAKAAYEAALTPKVESVSAIDSTSFKVTFTKPVDKATAIPKNFSITLKGTETKLYPKSVEVSESGLTATVTLYDTLVDGKTYTVVTSGLKDTAGKEFETSTNEFTYNKPVPASITFNFNKLPEDSAVDLTKYVTVKDAAGNVIKSGFELEFTSSEKLTQGKFINTTGKKSVIVNATVKGTNVTTGNVILAVED	soluble
MAHHHHHHMVNQTPHIVILSYDEEKINKFVSFLMSTFEPLESYEKAETYKLTFDRNDFHSGNGSSFAFKEVAKVAIVNKYYSAEVTISSCVVQSGENALRVEGSMPNGGLPDEANLPNGGLPDEANTPKMDLPDGAKPELQNQANELDAKDILCESVIFLFNNFTKKEKNIVNGNPFRSYDEECVEYIKDPESQQMIRNTHFDFSNLYKDVGIKIAIFPSSLEKDNKDIVNFFSDYFIECLYINYESAFLAEGGGQDDGHPSCPEEGDQNVKEEKTLLREFEEQEDDERLVEALHCHMWKGLQIKRDHLIIQHRGDFPMGEAFKGDEAARKGEKTPQKDEASPNGEKTPQKDEAAPNGENPPQRDAPATSGAAKIDLSGTLANSAKTPEGQKEELFMENFNKIVEKIRVAKMENKNCSNHAARRKKAEEIIFELQQYFCDIDGE	not soluble
MFRVGILTVSDKGFRGERQDTTHLAIREVLAGGPFEVAAYELVPDEPPMIKKVLRLWADREGLDLILTNGGTGLAPRDRTPEATRELLDREVPGLAELMRLVGLRKTPMAALSRGVAGVRGRTLILNLPGSPKGARESLEAVLPVLPHALSLVTGKPWKEGHHE	soluble
MGSEHAFQGPTSFHVIQTSSFTNSTWAQTQGSGWLDDLQIHGWDSDSGTAIFLKPWSKGNFSDKEVAELEEIFRVYIFGFAREVQDFAGDFQMKYPFEIQGIAGCELHSGGAIVSFLRGALGGLDFLSVKNASCVPSPEGGSRAQKFCALIIQYQGIMETVRILLYETCPRYLLGVLNAGKADLQRQVKPEAWLSSGPSPGPGRLQLVCHVSGFYPKPVWVMWMRGEQEQQGTQLGDILPNANWTWYLRATLDVADGEAAGLSCRVKHSSLEGQDIILYWGPGSGGGLNDIFEAQKIEWH	soluble
MAHRAFIQVIITGTQVFGKAFAEAYRQAASQSVKQGATNASRRGTGKGEYGGITLDESCKILNIEESKGDLNMDKINNRFNYLFEVNDKEKGGSFYLQSKVYRAAERLKWELAQREKNAKAKAGDASTAKPPPNSTNSSGADNSASSNQ	not soluble
